From US20260250318A1, “COMPOSITIONS AND METHODS FOR CROSSING THE BLOOD BRAIN BARRIER” (VOYAGER THERAPEUTICS, INC., priority 2022, published 2026) come the findings set out here.

One test deals with T1, His-tagged ALPL (Homo sapiens, UniProt P05186).
T1 sequence (P05186 18-501): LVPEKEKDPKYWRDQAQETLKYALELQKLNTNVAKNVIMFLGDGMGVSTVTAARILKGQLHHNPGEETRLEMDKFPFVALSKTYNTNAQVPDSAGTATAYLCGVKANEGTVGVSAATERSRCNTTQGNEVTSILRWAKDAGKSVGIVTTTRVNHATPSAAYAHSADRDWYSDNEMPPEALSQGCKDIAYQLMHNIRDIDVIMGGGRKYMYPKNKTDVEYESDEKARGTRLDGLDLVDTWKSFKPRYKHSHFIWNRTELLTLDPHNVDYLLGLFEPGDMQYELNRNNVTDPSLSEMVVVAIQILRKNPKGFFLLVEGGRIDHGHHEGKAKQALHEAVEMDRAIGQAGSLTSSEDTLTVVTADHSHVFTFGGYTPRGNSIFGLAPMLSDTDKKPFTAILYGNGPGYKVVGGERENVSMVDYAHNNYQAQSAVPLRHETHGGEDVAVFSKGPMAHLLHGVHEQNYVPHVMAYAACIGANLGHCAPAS
The test can be described thus: SPR (Biacore 8K) binding of capsids to ALPL. The following applies: for binding to ALPL by SPR: AAV 0.0625 to 1 nM over ALPL, or ALPL 15.625 to 250 nM over capsid. As for the experimental part:
Direct binding and specific interaction of the TTM-002 capsid variant and the AAV9 capsid control to ALPL was measured by Surface Plasmon Resonance (SPR) on a Biacore 8K instrument. His-tagged ALPL was first captured on a CM5 sensor chip pre-immobilized with anti-His antibody by passing 5 μg/ml of ALPL for 240 seconds (FIGS. 2A-2B). AAV9 or TTM-002 and buffer were then passed over ALPL to monitor rates of association and dissociation, respectively. […] The surface was regenerated using two pulses of 10 mM glycine pH 1.7 for 30 seconds. A flow rate of 30 μl/min was used for all steps and the running buffer used was PBS-P+. In a second experiment, the AAV9 control or TTM-002 capsid variant were immobilized on the CM5 sensor chip (FIGS. 2C-2D). His-tagged ALPL and buffer were then passed over the AAV9 control or TTM-002 capsid variant to monitor rates of association and dissociation. The concentration of ALPL used was from 15.625 to 250 nM (e.g., 15.625 nM, […], 62.5 nM, 125 nM, and 250 nM; FIGS. 2C-2D).
For this experiment, the density of TTM-002 on the chip was approximately 6300RU.
Additional experiments were performed varying the density of the TTM-002 capsid variant on the chip. His-tagged ALPL and buffer were then passed over the AAV9 control or TTM-002 capsid variant to monitor rates of association and dissociation.
On the technique in general: In SPR one partner is held on a chip, and binding of the other changes the refractive index at the surface.

Test [1] concerns the target T2, isoform 3 (alkaline phosphatase, intestinal (ALPLI)) (Homo sapiens, UniProt P09923).
T2 construct: expressed in transfected cells; host or cells: HEK 293T
T2 sequence (P09923 20-503): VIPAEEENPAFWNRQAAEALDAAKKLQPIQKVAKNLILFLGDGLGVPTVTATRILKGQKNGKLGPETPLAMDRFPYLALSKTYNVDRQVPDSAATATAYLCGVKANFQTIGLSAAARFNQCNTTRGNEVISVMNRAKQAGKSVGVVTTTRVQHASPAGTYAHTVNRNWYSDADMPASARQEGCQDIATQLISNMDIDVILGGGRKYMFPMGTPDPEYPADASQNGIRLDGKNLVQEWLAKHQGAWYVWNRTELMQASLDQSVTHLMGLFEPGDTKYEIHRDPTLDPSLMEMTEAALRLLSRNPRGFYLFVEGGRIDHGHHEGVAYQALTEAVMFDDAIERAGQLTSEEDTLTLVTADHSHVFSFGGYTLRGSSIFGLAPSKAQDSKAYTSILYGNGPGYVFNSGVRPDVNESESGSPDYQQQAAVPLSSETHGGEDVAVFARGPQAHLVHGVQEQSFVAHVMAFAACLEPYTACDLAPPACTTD
The test can be described thus: Transduction assay in HEK 293T cells expressing isoform 3. The test is classed as cell-based. The following applies: for Luciferase Activity (RLU): Table 30, Isoform 3 transfected cells; for increase in transduction in cells expressing isoform 3: luciferase activity (RLU). The text has this: (§1) Three isoforms of ALPL exist, isoform 1 (Alkaline phosphatase, placental-like 2 (ALPPL2), NM_031313, which is incorporated by reference herein), isoform 2 (alkaline phosphatase, placental (ALPP), NM_001632, which is incorporated by reference herein), and isoform 3 (alkaline phosphatase, intestinal (ALPLI), NM_001631, which is incorporated by reference herein), that can also be expressed on cell surfaces via a GPI-anchor. Isoform 1 is 56.25% identical and 72.54% similar (gaps: 4.17%) to ALPL, isoform 2 is 54.96% identical and 71.37% similar (gaps: 2.29%) to ALPL, and isoform 3 is 55.98% identical and 72.11% similar (gaps: 3.04%) to ALPL. The transduction assay described above was repeated with the three isoforms. HEK 293T cells were transfected via calcium phosphate transfection with a plasmid expressing ALPL, isoform 1 of ALPL, isoform 2 of ALPL, isoform 3 of ALPL, an AAVR positive control, or a pCMV6 negative control. […] At 24-hours post-transduction, luciferase activity (RLU) was measured to quantify AAV cellular transduction.

Test [2] deals with T3, isoform 2 (alkaline phosphatase, placental (ALPP)) (Homo sapiens, UniProt P05187).
T3 construct: expressed in transfected cells; host or cells: HEK 293T
The test can be described thus: Transduction assay in HEK 293T cells expressing isoform 2. The test is classed as cell-based. The following applies: for Luciferase Activity (RLU): Table 30, Isoform 2 transfected cells; for increase in transduction in cells expressing isoform 2: luciferase activity (RLU).
From the text: as §1

In test [3] the test system is brain. The test can be described thus: NGS fold enrichment of synthetic library (passage 3) in BALB/c mice, first cross-species screen. The test is classed as in vivo. The note with it: synthetic library passage 3, intravenous, RNA NGS, brain of BALB/c mice, relative to wild-type AAV9. The method, boiled down: (§2)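 Passage-3 synthetic capsid library given intravenously […] to NHPs (2-4 years) and BALB/c or C57Bl/6 mice (n=3, 6-8 weeks). After e.g. 28 days, tissue RNA was RT-PCR amplified and NGS-sequenced; values are fold enrichment of each variant relative to wild-type AAV9.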

The subject of test [4] is brain. The test can be described thus: NGS fold enrichment of synthetic library (passage 3) in C57Bl/6 mice, first cross-species screen. Type of test: in vivo. The following applies: synthetic library passage 3, intravenous, RNA NGS, brain of C57Bl/6 mice, relative to wild-type AAV9. In short, it runs like this:
as §2

[5] abbreviates: TTM-002 on chip approximately 6300RU.

Where a chain is given by its changes, count along the chain named.

T3 sequence (P05187 23-506): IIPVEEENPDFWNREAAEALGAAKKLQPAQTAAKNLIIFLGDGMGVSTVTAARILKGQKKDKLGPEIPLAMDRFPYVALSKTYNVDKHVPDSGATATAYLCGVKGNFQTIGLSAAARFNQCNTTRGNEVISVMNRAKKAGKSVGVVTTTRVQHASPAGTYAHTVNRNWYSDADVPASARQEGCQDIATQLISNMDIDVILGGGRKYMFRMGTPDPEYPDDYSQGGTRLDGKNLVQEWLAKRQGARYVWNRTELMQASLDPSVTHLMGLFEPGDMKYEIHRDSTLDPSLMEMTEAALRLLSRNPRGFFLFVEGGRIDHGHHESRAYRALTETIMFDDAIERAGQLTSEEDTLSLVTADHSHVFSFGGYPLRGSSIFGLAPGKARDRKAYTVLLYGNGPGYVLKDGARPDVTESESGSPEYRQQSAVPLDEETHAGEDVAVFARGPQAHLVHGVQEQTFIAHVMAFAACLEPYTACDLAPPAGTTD

In the case of “AAV9: wild-type AAV9 control capsid [reference compound]”, in the test with His-tagged ALPL, the “binding to ALPL by SPR” value is listed as “no binding”.

B1: TTM-001: AAV9 capsid variant comprising SPHSKA (SEQ ID NO: 941) in loop IV (protein)
chain 1: MAADGYLPDWLEDNLSEGIREWWALKPGAPQPKANQQHQDNARGLVLPGYKYLGPGNGLDKGEPVNAADAAALEHDKAYDQQLKAGDNPYLKYNHADAEFQERLKEDTSFGGNLGRAVFQAKKRLLEPLGLVEEAAKTAPGKKRPVEQSPQEPDSSAGIGKSGAQPAKKRLNFGQTGDTESVPDPQPIGEPPAAPSGVGSLTMASGGGAPVADNNEGADGVGSSSGNWHCDSQWLGDRVITTSTRTWALPTYNNHLYKQISNSTSGGSSNDNAYFGYSTPWGYFDFNRFHCHFSPRDWQRLINNNWGFRPKRLNFKLFNIQVKEVTDNNGVKTIANNLTSTVQVFTDSDYQLPYVLGSAHEGCLPPFPADVFMIPQYGYLTLNDGSQAVGRSSFYCLEYFPSQMLRTGNNFQFSYEFENVPFHSSYAHSQSLDRLMNPLIDQYLYYLSKTINGSGSPHSKAQNQQTLKFSVAGPSNMAVQGRNYIPGPSYRQQRVSTTVTQNNNSEFAWPGASSWALNGRNSLMNPGPAMASHKEGEDRFFPLSGSLIFGKQGTGRDNVDADKVMITNEEEIKTTNPVATESYGQVATNHQSAQAQAQTGWVQNQGILPGMVWQDRDVYLQGPIWAKIPHTDGNFHPSPLMGGFGMKHPPPQILIKNTPVPADPPTAFNKDKLNSFITQYSTGQVSVEIEWELQKENSKRWNPEIQYTSNYYKSNNVEFAVNTEGVYSEPRPIGTRYLTRNL
chain 2: GSGSPHSKAQNQQT
As for B1, in test [1], the “Luciferase Activity (RLU)” value is on record as 3,300 RLU and the “increase in transduction in cells expressing isoform 3” value is on record as “did not occur”. In test [2], the “Luciferase Activity (RLU)” value is listed as 7,456 RLU and the “increase in transduction in cells expressing isoform 2” value is on record as “did not occur”. The “Fold enrichment over AAV9 in the brain of Mice (BALB/c)” value in the test on brain [3] was 41.304 fold. Further, the “Fold enrichment over AAV9 in the brain of Mice (C57Bl/6)” value in the test with brain [4] stood at 25.293 fold.

B2: TTM-002: AAV9 capsid variant comprising HDSPHK (SEQ ID NO: 2) in loop IV (protein)
chain 1: B1 chain 1 with S454H, G455D, S459K, K460S, A461G
chain 2: GHDSPHKSGQNQQT
Usually koff stands for a measure of how fast the partners let go of each other. Read a low koff as slow dissociation. By kon is commonly meant the rate constant with which the complex forms. A lower kon goes with slower complex formation. B2: the “binding to ALPL by SPR” value in the test with His-tagged ALPL was “capable of directly and specifically binding to ALPL in a dose dependent manner”. Further, the off-rate constant (koff) stood at 0.0051 s⁻¹ in the test with His-tagged ALPL (Density of TTM-002 127 RU on chip); 0.00185 s⁻¹ with His-tagged ALPL (Density of TTM-002 2400 RU on chip); 0.00127 s⁻¹ with His-tagged ALPL (Density of TTM-002 6300 RU on chip); 0.00116 s⁻¹ with His-tagged ALPL (Density of TTM-002 6680 RU on chip); 0.00127 s⁻¹ with His-tagged ALPL (setting [5]). The kon in the test with His-tagged ALPL (setting [5]) stood at 32000 M⁻¹ s⁻¹. Further, the “Luciferase Activity (RLU)” value in test [1] was 2,074 RLU; in test [2], 3,465 RLU. In test [1], the “increase in transduction in cells expressing isoform 3” value is on record as “did not occur”. In addition, in test [2], the “increase in transduction in cells expressing isoform 2” value is listed as “did not occur”. Also, in the test on brain [3], the “Fold enrichment over AAV9 in the brain of Mice (BALB/c)” value was 49.760 fold. Besides, the “Fold enrichment over AAV9 in the brain of Mice (C57Bl/6)” value in the test with brain [4] amounted to 63.993 fold.
